Results reported in patent US6001988, “High affinity nucleic acid ligands to lectins” (NeXstar Pharmaceuticals, Inc.).

Assays:
L-selectin (LS-Rg) [1] = molecular target: T1, L-selectin (LS-Rg) (Homo sapiens, UniProt P14151 P14151:39-332); experiment: filter; room temp; 970 pM at 37 C; details: tags: human IgG2 Fc fusion (provided by A. Varki); label: 32P; hairpin
T1 chain: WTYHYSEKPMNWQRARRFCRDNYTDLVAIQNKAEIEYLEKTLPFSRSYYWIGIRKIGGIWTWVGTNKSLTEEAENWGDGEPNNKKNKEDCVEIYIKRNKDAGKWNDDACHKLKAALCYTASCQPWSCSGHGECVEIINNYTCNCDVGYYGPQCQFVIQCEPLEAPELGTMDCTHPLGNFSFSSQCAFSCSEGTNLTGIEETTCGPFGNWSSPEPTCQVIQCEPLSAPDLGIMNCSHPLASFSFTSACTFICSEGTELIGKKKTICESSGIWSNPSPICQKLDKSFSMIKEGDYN

L-selectin (LS-Rg) [2] = molecular target: T1, L-selectin (LS-Rg); experiment: filter; room temp; 380 pM at 37 C; table prints SEQ 155, Table XII and text give 133; details: tags: human IgG2 Fc fusion (provided by A. Varki); label: 32P; hairpin
P-selectin (PS-Rg) = molecular target: T2, P-selectin (PS-Rg) (Homo sapiens, UniProt P16109 P16109:42-321); experiment: filter; room temp, Ca/Mg buffer; details: tags: lectin, EGF and first two CRD domains fused to human IgG1 Fc (provided by A. Varki); chain copies: 2 (dimeric Fc chimera, inferred)
T2 chain: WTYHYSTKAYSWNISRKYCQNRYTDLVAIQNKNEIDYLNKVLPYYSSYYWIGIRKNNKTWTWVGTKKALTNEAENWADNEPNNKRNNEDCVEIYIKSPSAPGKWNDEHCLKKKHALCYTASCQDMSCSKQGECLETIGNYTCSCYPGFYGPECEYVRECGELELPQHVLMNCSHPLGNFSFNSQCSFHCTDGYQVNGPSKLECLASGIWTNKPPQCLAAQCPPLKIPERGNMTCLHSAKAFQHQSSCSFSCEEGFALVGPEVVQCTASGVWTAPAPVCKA

E-selectin (ES-Rg) = molecular target: T3, E-selectin (ES-Rg) (Homo sapiens, UniProt P16581 P16581:22-556); experiment: filter; room temp, Ca/Mg buffer; details: tags: extracellular domain fused to human IgG1 Fc (provided by A. Varki); chain copies: 2 (dimeric Fc chimera, inferred)
T3 chain: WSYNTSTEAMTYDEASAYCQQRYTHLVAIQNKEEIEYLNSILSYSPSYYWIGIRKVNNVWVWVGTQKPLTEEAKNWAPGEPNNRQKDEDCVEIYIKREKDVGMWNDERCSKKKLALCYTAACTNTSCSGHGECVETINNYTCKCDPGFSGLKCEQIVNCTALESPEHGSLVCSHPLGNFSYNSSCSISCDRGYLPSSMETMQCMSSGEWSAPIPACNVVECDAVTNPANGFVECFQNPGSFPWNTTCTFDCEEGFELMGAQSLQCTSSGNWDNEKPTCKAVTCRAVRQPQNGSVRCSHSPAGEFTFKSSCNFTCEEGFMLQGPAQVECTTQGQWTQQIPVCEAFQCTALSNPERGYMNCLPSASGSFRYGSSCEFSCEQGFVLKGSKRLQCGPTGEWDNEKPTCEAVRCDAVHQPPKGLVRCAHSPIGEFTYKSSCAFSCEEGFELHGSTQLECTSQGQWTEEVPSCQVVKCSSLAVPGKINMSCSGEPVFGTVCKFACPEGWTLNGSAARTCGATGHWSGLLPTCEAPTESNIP

L-selectin (LS-Rg) [3] = molecular target: T1, L-selectin (LS-Rg); experiment: filter; room temp; 3.4 nM at 37 C; details: tags: human IgG2 Fc fusion (provided by A. Varki); label: 32P
L-selectin (LS-Rg) [4] = molecular target: T1, L-selectin (LS-Rg); experiment: filter; room temp; 1.6 nM at 37 C; details: tags: human IgG2 Fc fusion (provided by A. Varki); label: 32P
L-selectin (LS-Rg) [5] = molecular target: T1, L-selectin (LS-Rg); experiment: filter; room temp; 1.0 nM at 37 C; details: tags: human IgG2 Fc fusion (provided by A. Varki); label: 32P; hairpin
L-selectin (LS-Rg) [6] = molecular target: T1, L-selectin (LS-Rg); experiment: filter; room temp; 1.2 nM at 37 C; Table XIV prints 110 nM; details: tags: human IgG2 Fc fusion (provided by A. Varki); label: 32P; hairpin
L-selectin (LS-Rg) [7] = molecular target: T1, L-selectin (LS-Rg); experiment: filter; room temp; 3.7 nM at 37 C; details: tags: human IgG2 Fc fusion (provided by A. Varki); label: 32P; hairpin
L-selectin (LS-Rg) [8] = molecular target: T1, L-selectin (LS-Rg); experiment: filter; room temp; 2.0 nM at 37 C; details: tags: human IgG2 Fc fusion (provided by A. Varki); label: 32P; hairpin
L-selectin (LS-Rg) [9] = molecular target: T1, L-selectin (LS-Rg); experiment: filter; room temp; 8.5 nM at 37 C; details: tags: human IgG2 Fc fusion (provided by A. Varki); label: 32P; hairpin

B1: 193 (ssDNA)
DNA: CTACCTACGATCTGACTAGCCCAGGAGCACAGTACAAGGTGTTAAACGTAATGTCTGGTGCTTACTCTCATGTAGTTCC
Kd (L-selectin (LS-Rg) [1]): 0.088 nM

B2: 208 (ssDNA)
DNA: CTACCTACGATCTGACTAGCCACGTTTCAAGGGGTTACACGAAACGATTCACTCCTTGGCGCTTACTCTCATGTAGTTCC
Kd (L-selectin (LS-Rg) [2]): 0.11 nM

B3: 196 (ssDNA)
DNA: CTACCTACGATCTGACTAGCTGGCGGTACGGGCCGTGCACCCACTTACCTGGGAAGTGAGCTTACTCTCATGTAGTTCC
Kd (P-selectin (PS-Rg)): 3400 nM | Kd (E-selectin (ES-Rg)): 50 nM | Kd (L-selectin (LS-Rg) [3]): 0.13 nM

B4: 239 (ssDNA)
DNA: CTACCTACGATCTGACTAGCCCACAGACAATCGCAGTCCCCGTGTAGCTCTGGGTGTCTGCTTACTCTCATGTAGTTCC
Kd (L-selectin (LS-Rg) [4]): 0.17 nM

B5: 183 (ssDNA)
DNA: CTACCTACGATCTGACTAGCGGCATCCCTGAGTCATTACAAGGTTCTTAACGTAATGTACGCTTACTCTCATGTAGTTCC
Kd (L-selectin (LS-Rg) [5]): 0.17 nM

B6: 201 (ssDNA)
DNA: CTACCTACGATCTGACTAGCCAAGGTAACCAGTACAAGGTGCTAAACGTAATGGCTTCGGCTTACTCTCATGTAGTTCC
Kd (P-selectin (PS-Rg)): 1000 nM | Kd (E-selectin (ES-Rg)): 37 nM | Kd (L-selectin (LS-Rg) [6]): 0.11 nM

B7: 204 (ssDNA)
DNA: CTACCTACGATCTGACTAGCGGAACACGTGAGGTTTACAAGGCACTCGACGTAAACACTTGCTTACTCTCATGTAGTTCC
Kd (P-selectin (PS-Rg)): 2900 nM | Kd (E-selectin (ES-Rg)): 1500 nM | Kd (L-selectin (LS-Rg) [7]): 0.1 nM

B8: 182 (ssDNA)
DNA: CTACCTACGATCTGACTAGCTAGTGCTCCACGTATTCAAGGTGCTAAACGAAGACGGCCTGCTTACTCTCATGTAGTTCC
Kd (L-selectin (LS-Rg) [8]): 0.13 nM

B9: 108 (ssDNA)
DNA: CTACCTACGATCTGACTAGCGAGTAGCCAAGGCGTTAGACGGAGGGGGAATGTGAGCACAGCTTACTCTCATGTAGTTCC
Kd (L-selectin (LS-Rg) [9]): 0.16 nM
